For 2 proteins, Km results are on record in patent US5482996A, “Protein-containing polymers and a method of synthesis of protein-containing polymers in organic solvents” (University of Pittsburgh, priority 1993, dated 1996).

Substrate in series [1]: C[C@H](NC(=O)CCC(=O)O)C(=O)N[C@@H](C)C(=O)N1CCC[C@H]1C(=O)N[C@@H](Cc1ccccc1)C(=O)Nc1ccc([N+](=O)[O-])cc1
As to the kind of experiment: Hydrolysis of peptide p-nitroanilide substrate, kinetic constants. Format: biochemical. To be noted: other: Tris-HCl buffer (0.1M, pH 8.6). Here is the method: (§1) Kinetic studies of the modified protein were performed using substrate (N-succinyl-L-alanyl-L-alanyl-L-prolyl-L-phenylalanyl p-nitroanilide) in 0.1M Tris-HCl buffer, pH 8.6. The purified HPLC fractions (three total) were tested for activity while increasing the substrate concentrations in equal increments. Substrate concentration versus rate was plotted to determine Vmax and Km using non-linear regression analysis. A standard of pure subtilisin was analyzed as a control.
As set forth above, the activity of the modified enzymes was assessed with the artificial peptide substrate succinyl-L-alanyl-L-alanyl-L-prolyl-L-phenylalanyl p-nitroanilide. A sample of 30 mg modified protein powder was dissolved in tetrahydrofuran, and filtered with a solvent resistant 0.22 μm filter in order to remove the insoluble native protein. The solvent was evaporated and, as mentioned above, values for Vmax and Km were determined.

Substrate in series [2]: C[C@H](NC(=O)CCC(=O)O)C(=O)N[C@@H](C)C(=O)N1CCC[C@H]1C(=O)N[C@@H](Cc1ccccc1)C(=O)Nc1ccc([N+](=O)[O-])cc1
The series is described as above. Conditions: other: Tris-HCl buffer (0.1M, pH 8.6). Type of series: biochemical. Here is the method: as §1
Before reacting PEG-subtilisin with other materials it is necessary to fully characterize the activity and stability of the "bio-monomer". Using solubility, IMAC, and HPLC the modified protein was separated into predominantly singly or doubly modified protein fractions. […] Thus, the activities and stabilities noted are average properties for the sample being studied. For comparison to the native protein, unmodified protein was purified from the modification reaction mixture and characterized to some degree.
As set forth above, the activity of the modified enzymes was assessed with the artificial peptide substrate succinyl-L-alanyl-L-alanyl-L-prolyl-L-phenylalanyl p-nitroanilide. […] The solvent was evaporated and, as mentioned above, values for Vmax and Km were determined.
This is another data set of the same source.

B1: Subtilisin Carlsberg, native (pure subtilisin standard) (Bacillus licheniformis) (protein)
chain: AQTVPYGIPLIKADKVQAQGFKGANVKVAVLDTGIQASHPDLNVVGGASFVAGEAYNTDGNGHGTHVAGTVAALDNTTGVLGVAPSVSLYAVKVLNSSGSGSYSGIVSGIEWATTNGMDVINMSLGGASGSTAMKQAVDNAYAKGVVVVAAAGNSGSSGNTNTIGYPAKYDSVIAVGAVDSNSNRASFSSVGAELEVMAPGAGVYSTYPTNTYATLNGTSMASPHVAGAAALILSKHPNLSASQVRNRLSSTATYLGSSFYYGKGLINVEAAAQ
notes: purchased Sigma Chemical Co
For B1, in series [1], the Km came to 120 µM.

B2: Subtilisin Carlsberg, unmodified fraction purified from the PEG modification reaction mixture (Bacillus licheniformis) (protein)
chain: B1 chain
notes: purchased Sigma Chemical Co
Take B2: the Km in series [2] came to 170 µM.
